Experiment [1] addresses monkey PD-1 (ACRO, His tag) (monkey) (UniProt B0LAJ3). Kind of experiment: ELISA, monkey PD-1-His coated at 1 ug/mL, anti-human IgG Fc detection.
The target is the same in experiment [2]. Put plainly: ELISA, monkey PD-1-His coated at 1 ug/mL, anti-human IgG Fc detection, OD450.
In experiment [3] the target is human VEGF (ACRO, His tag) (human) (UniProt P15692). Kind of experiment: ELISA, human VEGF-His coated at 50 ng/ml, anti-human IgG Fc detection, OD450; negative control.
For experiment [4], the target named is biotin-labeled human VEGF (ACRO, biotinylated protein) (human) (UniProt P15692). Kind of experiment: bridging ELISA: human PD-1-His coated at 1 ug/mL, antibody, then biotinylated human VEGF at 50 ng/ml and streptavidin-HRP, OD450; single-target control. (An ELISA detects its analyte on a solid surface through an enzyme-linked reagent.)
biotin-labeled human VEGF (ACRO, biotinylated protein) (human), sequence (P15692 other isoform, or with tags, fused parts or gaps limits assumed): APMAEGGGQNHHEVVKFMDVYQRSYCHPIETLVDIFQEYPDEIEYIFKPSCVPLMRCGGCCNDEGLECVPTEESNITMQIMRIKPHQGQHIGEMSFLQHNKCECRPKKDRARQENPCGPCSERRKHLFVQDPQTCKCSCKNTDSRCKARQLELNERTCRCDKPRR

monkey PD-1 (ACRO, His tag) (monkey), sequence (B0LAJ3 entry or part of it limits assumed, form in doubt): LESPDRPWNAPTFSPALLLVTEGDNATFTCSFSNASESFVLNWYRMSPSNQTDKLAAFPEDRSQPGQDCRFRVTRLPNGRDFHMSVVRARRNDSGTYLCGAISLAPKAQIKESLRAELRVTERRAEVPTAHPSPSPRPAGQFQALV
human VEGF (ACRO, His tag) (human), sequence (P15692 other isoform, or with tags, fused parts or gaps limits assumed): as the sequence (P15692 other isoform, or with tags, fused parts or gaps limits assumed) above

For the substance Keytruda (pembrolizumab) (antibody), in experiment [1], the concentration giving a half-maximal response (EC50) – broadly, the concentration at which the effect is half-maximal – was 0.187 nM. In experiment [2], this substance yielded a TOP OD of 3.08 OD.
Opdivo (nivolumab) (antibody) came in with an EC50 in experiment [1] of 0.153 nM. Besides, the results for the TOP OD in experiment [2], in experiment [3] and in experiment [4] were 2.99 OD, 0.048 OD and 0.048 OD, respectively.

(Values after US20250145701A1.)
